Publication PMC10684670

How the values were obtained:
rhNKp30-his protein = rhNKp30-his protein (UniProt O14931); assay: flow cytometry on cells; conditions: 293T cells stably expressing B7-H6, stained with his-tagged NKp30; parent: est. 1.0; read off a plot
CHX chase, WB, U87 = conditions: glycan lost; control: DMSO
CHX chase, WB, 293T = conditions: glycan lost; control: DMSO
[1] = CHX chase, WB, stable 293T; conditions: glycan lost; control: wild type
[2] = surface B7-H6 flow cytometry, HCT-116; conditions: glycan lost; control: wild type
[3] = surface B7-H6 flow cytometry, HEK293T; conditions: glycan lost; control: wild type
[4] = WB of TCA-precipitated supernatant, HCT-116; conditions: glycan lost; control: wild type
[5] = WB of TCA-precipitated supernatant, HEK293T; conditions: glycan lost; control: wild type

B7-H6, wild type, stably expressed on B7-H6 knockout 293T cells (from UniProt Q68D85) N411Q
ratio to parent (rhNKp30-his protein): 0.94

B1: B7-H6: tunicamycin (protein)
parent chain: MTWRAAASTCAALLILLWALTTEGDLKVEMMAGGTQITPLNDNVTIFCNIFYSQPLNITSMGITWFWKSLTFDKEVKVFEFFGDHQEAFRPGAIVSPWRLKSGDASLRLPGIQLEEAGEYRCEVVVTPLKAQGTVQLEVVASPASRLLLDQVGMKENEDKYMCESSGFYPEAINITWEKQTQKFPHPIEISEDVITGPTIKNMDGTFNVTSCLKLNSSQEDPGTVYQCVVRHASLHTPLRSNFTLTAARHSLSETEKTDNFSIHWWPISFIGVGLVLLIVLIPWKKICNKSSSAYTPLKCILKHWNSFDTQTLKKEHLIFFCTRAWPSYQLQDGEAWPPEGSVNINTIQQLDVFCRQEGKWSEVPYVQAFFALRDNPDLCQCCRIDPALLTVTSGKSIDDNSTKSEKQTPREHSDAVPDAPILPVSPIWEPPPATTSTTPVLSSQPPTLLLPLQ
degradation_or_half_life, half_life (CHX chase, WB, U87): decreases, 12.83 vs 27.14 | degradation_or_half_life, half_life (CHX chase, WB, 293T): decreases, 17.36 vs 47.42

B2: B7-H6: N208Q (protein)
parent chain: MTWRAAASTCAALLILLWALTTEGDLKVEMMAGGTQITPLNDNVTIFCNIFYSQPLNITSMGITWFWKSLTFDKEVKVFEFFGDHQEAFRPGAIVSPWRLKSGDASLRLPGIQLEEAGEYRCEVVVTPLKAQGTVQLEVVASPASRLLLDQVGMKENEDKYMCESSGFYPEAINITWEKQTQKFPHPIEISEDVITGPTIKNMDGTFNVTSCLKLNSSQEDPGTVYQCVVRHASLHTPLRSNFTLTAARHSLSETEKTDNFSIHWWPISFIGVGLVLLIVLIPWKKICNKSSSAYTPLKCILKHWNSFDTQTLKKEHLIFFCTRAWPSYQLQDGEAWPPEGSVNINTIQQLDVFCRQEGKWSEVPYVQAFFALRDNPDLCQCCRIDPALLTVTSGKSIDDNSTKSEKQTPREHSDAVPDAPILPVSPIWEPPPATTSTTPVLSSQPPTLLLPLQ
degradation_or_half_life, half_life [1]: decreases, 15 vs about 52 | localisation_or_trafficking [2]: decreases | localisation_or_trafficking [3]: decreases | other: shedding of soluble B7-H6 [4]: increases | other: shedding of soluble B7-H6 [5]: increases

B3: B7-H6: N43Q (protein)
parent chain: MTWRAAASTCAALLILLWALTTEGDLKVEMMAGGTQITPLNDNVTIFCNIFYSQPLNITSMGITWFWKSLTFDKEVKVFEFFGDHQEAFRPGAIVSPWRLKSGDASLRLPGIQLEEAGEYRCEVVVTPLKAQGTVQLEVVASPASRLLLDQVGMKENEDKYMCESSGFYPEAINITWEKQTQKFPHPIEISEDVITGPTIKNMDGTFNVTSCLKLNSSQEDPGTVYQCVVRHASLHTPLRSNFTLTAARHSLSETEKTDNFSIHWWPISFIGVGLVLLIVLIPWKKICNKSSSAYTPLKCILKHWNSFDTQTLKKEHLIFFCTRAWPSYQLQDGEAWPPEGSVNINTIQQLDVFCRQEGKWSEVPYVQAFFALRDNPDLCQCCRIDPALLTVTSGKSIDDNSTKSEKQTPREHSDAVPDAPILPVSPIWEPPPATTSTTPVLSSQPPTLLLPLQ
degradation_or_half_life, half_life [1]: decreases, 5 vs about 52 | localisation_or_trafficking [2]: decreases | localisation_or_trafficking [3]: decreases
